Laboratory results taken from PMC6794382.

Target: Drosophila melanogaster imaginal morphogenesis protein-late 2 protein (Imp-L2) (Drosophila melanogaster) (UniProt Q09024)
Test: cross-linking; Sulfo-SDA-modified ligand (about 100 μg, 10–20 nmol) incubated with recombinant Imp-L2 (76 μg, about 3 nmol) overnight at 4°C, irradiated at 365 nm for 5 min; SDS-PAGE, western blot with anti-IGF-1, tryptic digest of the excised band and LC-MS/MS (Links, StavroX)

UniProt Q09024, sequence (Q09024 26-267): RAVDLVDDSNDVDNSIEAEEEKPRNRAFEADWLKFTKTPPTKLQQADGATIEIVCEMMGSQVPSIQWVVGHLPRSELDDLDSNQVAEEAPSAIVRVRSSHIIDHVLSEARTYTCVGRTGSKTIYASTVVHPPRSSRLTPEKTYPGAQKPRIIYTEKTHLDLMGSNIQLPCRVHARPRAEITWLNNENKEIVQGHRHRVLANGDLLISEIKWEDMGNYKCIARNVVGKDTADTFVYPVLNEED

Question: “des(63-70)-IGF-1 (human IGF-1 lacking the C-terminal D domain amino acids PLKPAKSA, with an additional N-terminal Gly-1) (ligand)” was tested. Which percent of Imp-L2 crosslinked did it give?
Answer: The percent of Imp-L2 crosslinked was 10 to 20%.
